T1: S-adenosyl-L-homocysteine hydrolase (SAHase) from Alcaligenes faecalis (IFO 12669) (Alcaligenes faecalis, UniProt A0A2U2BLR9)
T1 sequence (A0A2U2BLR9 1-465): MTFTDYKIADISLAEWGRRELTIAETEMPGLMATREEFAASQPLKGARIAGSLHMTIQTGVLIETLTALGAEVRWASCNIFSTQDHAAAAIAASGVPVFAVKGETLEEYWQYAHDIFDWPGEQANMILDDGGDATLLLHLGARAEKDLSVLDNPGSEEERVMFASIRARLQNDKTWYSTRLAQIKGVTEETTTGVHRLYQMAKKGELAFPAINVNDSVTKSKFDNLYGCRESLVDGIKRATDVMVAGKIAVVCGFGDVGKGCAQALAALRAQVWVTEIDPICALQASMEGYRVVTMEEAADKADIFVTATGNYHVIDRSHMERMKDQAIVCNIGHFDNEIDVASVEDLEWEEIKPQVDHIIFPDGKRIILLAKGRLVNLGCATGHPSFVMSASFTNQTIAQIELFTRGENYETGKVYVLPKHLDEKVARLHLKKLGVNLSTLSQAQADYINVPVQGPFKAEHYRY

B1: S-adenosyl-L-homocysteine hydrolase (SAHase) from Alcaligenes faecalis (IFO 12669) (Alcaligenes faecalis) (protein)
chain: T1 sequence (A0A2U2BLR9 1-465)

Tests used:
[1] = molecular target: T1, S-adenosyl-L-homocysteine hydrolase (SAHase) from Alcaligenes faecalis (IFO 12669); conditions: read-out: Km for SAH; purified crystalline SAHase of Example 1
Description: (§1) Then, the reaction is stopped by adding 0.1 ml of 30% perchloric acid. Then, 0.9 ml of 0.5M phosphate buffer (pH 7.0) was added to the reaction mixture. The resulting precipitate is removed by centrifugal separation. The supernatant obtained is analyzed by high-performance liquid chromatography (Model 638-30 made by Hitachi Limited; column Cosmocil 5C18 ; eluent 0.2M KH2 PO4 /methanol=90/10 (V/v); detector UV 260 nm) to determine the amount of SAH produced. The SAH synthesizing enzyme activity is expressed in units. One unit is defined as the amount of the enzyme which is required to form 1 micromole of SAH per minute.
(§2) SAH is reacted with SAHase, and the resulting AdR is converted to inosine in the presence of an excess of adenosine deaminase. The speed of the decrease of the absorbance at 265 nm at this time is measured. Specifically, 475 microliters of 10 mM phosphate buffer, 10 microliters of 2.5 mM SAH, 5 microliters of adenosine deaminase (Type III produced by Sigma Company) and 10 microliters of an enzyme solution are reacted at 25° C., and the speed of the decrease of the absorbance at 265 nm at this time is measured to determine the amount of SAH hydrolyzed. The SAH hydrolysis enzyme activity is expressed in units. One unit is defined as the amount of the enzyme which is required to hydrolyze 1 micromole of SAH per minute.

[2] = substrate: N[C@@H](CCS)C(=O)O; test: purified protein, by the assay type; conditions: other: purified crystalline SAHase of Example 1
[3] = substrate: Nc1ncnc2c1ncn2[C@@H]1O[C@H](CO)[C@@H](O)[C@H]1O; test: purified protein, by the assay type; conditions: other: purified crystalline SAHase of Example 1
Description: as §1, §2

| Molecule | Km [1] [µM] | Km [2] [µM] | Km [3] [µM] |
| --- | --- | --- | --- |
| Nc1ncnc2c1ncn2[C@@H]1O[C@H](CSCC[C@H](N)C(=O)O)[C@@H](O)[C@H]1O [SAH, S-adenosyl-L-homocysteine] | 10 |  |  |
| B1 |  | 930 | 37 |

Source: patent US4609626A, “Method for producing S-adenosyl-L-homocysteine hydrolase” (Nippon Zeon Co., Ltd., priority 1983, dated 1986)
